From patent US20240018526, “DEOXYRIBONUCLEIC ACID-BASED BIOSENSOR AND ASSOCIATED METHODS” (FACible BioDiagnostics LLC, published 2024)

Molecular target: SARS-CoV-2 spike glycoprotein S1 (SARS-CoV-2, UniProt P0DTC2 P0DTC2:14-685)

B1: N6-D2-biotin aptamer (ssDNA)
DNA: CACGGTTCGAGCTGGTACTAAACTTCGCTAAACAACACGCAGCATTTCATCGGGTCCAAAAGGGGCTGCTCGGGATTGCGGATATGGACCCGTCAGCTTA
modifications: 5'-biotin (5BiosG), as SEQ ID NO 96
B1: binds.
